Source: paper PMC4445002, “Efficient inhibition of tumor angiogenesis and growth by a synthetic peptide blocking S100A4-methionine aminopeptidase 2 interaction” (Molecular Therapy. Methods & Clinical Development, 2015)

B1: MetAP2(1–169): truncated MetAP2, amino acids 1–169, control, expressed from retrovirus (protein, UniProt P50579 1-169, looked up, fragment)
chain: MAGVEEVAASGSHLNGDLDPDDREEGAASTAEEAAKKKRRKKKKSKGPSAAGEQEPDKESGASVDEVARQLERSALEDKERDEDDEDGDGDGDGATGKKKKKKKKKRGPKVQTDPPSVPICDLYPNGVFPKGQECEYPPTQDGRTAAWRTTSEEKKALDQASEEIWNDF
B2: MetAP2(1–229): truncated form of MetAP2, amino acids 1–229, expressed from retrovirus (protein, UniProt P50579 1-229, looked up, fragment)
chain: MAGVEEVAASGSHLNGDLDPDDREEGAASTAEEAAKKKRRKKKKSKGPSAAGEQEPDKESGASVDEVARQLERSALEDKERDEDDEDGDGDGDGATGKKKKKKKKKRGPKVQTDPPSVPICDLYPNGVFPKGQECEYPPTQDGRTAAWRTTSEEKKALDQASEEIWNDFREAAEAHRQVRKYVMSWIKPGMTMIEICEKLEDCSRKLIKENGLNAGLAFPTGCSLNNCA
B3: ECFP-MetAP2: ECFP-tagged full-length MetAP2 expressed in HeLa cells (protein)
chain: AGVEQAASFGGHLNGDLDPDDREEGTSSTAEEAAKKKRRKKKKGKGAVSAVQQELDKESGALVDEVAKQLESQALEEKERDDDDEDGDGDADGATGKKKKKKKKKRGPKVQTDPPSVPICDLYPNGVFPKGQECEYPPTQDGRTAAWRTTSEEKKALDQASEEIWNDFREAAEAHRQVRKYVMSWIKPGMTMIEICEKLEDCSRKLIKENGLNAGLAFPTGCSLNNCAAHYTPNAGDTTVLQYDDICKIDFGTHISGRIIDCAFTVTFNPKYDILLTAVKDATNTGIKCAGIDVRLCDVGEAIQEVMESYEVEIDGKTYQVKPIRNLNGHSIGPYRIHAGKTVPIVKGGEATRMEEGEVYAIETFGSTGKGVVHDDMECSHYMKNFDVGHVPIRLPRTKHLLNVINENFGTLAFCRRWLDRLGESKYLMALKNLCDLGIVDPYPPLCDIKGSYTAQFEHTILLRPTCKEVVSRGDDY
modifications: left off: ECFP, end not stated, kept
notes: ECFP-tagged full-length MetAP2 expressed in HeLa cells

Experiments:
MSS31 cells = assay: DNA synthesis (BrdU uptake ELISA) in retrovirally infected cells; format: cell-based, mouse; settings: retroviral overexpression, 10% FBS and 10 μmol/l BrdU for 6 hours, OD450
Experimental: cDNA fragments encoding amino acids 1–169 [MetAP2(1–169)] or 1–229 [MetAP2(1–229)] of MetAP2 were PCR amplified and inserted into the multicloning site (SalI/NotI site) of the pRX-puro vector (Supplementary Figure S1).
DNA synthesis was quantified by measuring bromodeoxyuridine (BrdU) incorporation using the Cell Proliferation ELISA BrdU kit (Roche Applied Science, Penzberg, Upper Bavaria, Germany). MSS31 cells cultured for 24 hours in a medium containing 0.2% serum were stimulated with a medium containing 10% FBS and 10 μmol/l BrdU for 6 hours. The cells were harvested and BrdU uptake was measured according to the manufacturer’s protocol. Briefly, the cells were fixed, denatured, and incubated with the monoclonal anti-BrdU-peroxidase antibody. The immune complexes were then detected by the subsequent reaction with tetramethyl-benzidine. The reaction product was quantified by measuring the absorbance (OD450) using a scanning multiwell spectrophotometer.

S100A4 = assay: FRET acceptor-photobleaching analysis in live HeLa cells; format: binding; settings: ECFP fusion cotransfected with EYFP-S100A4, acceptor photobleaching, n = 8–11, **P < 0.01, ***P < 0.001

Molecule | serum-induced DNA synthesis (MSS31 cells) | FRET efficiency with EYFP-S100A4 vs negative controls (S100A4)
B1 | but not MetAP2(1–169), resulted in a marked suppression of serum-induced DNA synthesis | –
B2 | resulted in a marked suppression of serum-induced DNA synthesis | –
B3 | – | significantly higher than that of the negative controls
